# From the nanobody polyreactivity screen of Harvey et al. (2022)
# Experiment: yeast display, Sf9 membrane polyspecificity reagent, FACS + sequencing; frameworks hold sequencing errors
# How it was run: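 Galactose induction of a Saccharomyces cerevisiae BJ5465 synthetic nanobody display library ran 36–48 hours. The cells were then stained for 1 hour at 4 °C with 10% biotinylated, detergent-solubilized Sf9 membrane reagent, pulled down on streptavidin microbeads and FACS-sorted into low and high (top ~1%) gates on expression and reagent-binding fluorescence. Labels for polyreactivity follow the gate of origin.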
row,Sequence,polyreactivity (PSR sort gate)
1,QVLLVESGGGLVQAGGSLRLSFAASGITFYGYDMGWYRQATGKERELVAAITSDGITNYADSVKGRFTISRDNAKNTVYLQMNSLKPEDTAVYYCAADVSFYRRYEWYYYWGQGTQVTVSS,low polyreactivity
2,QVLLVESGGGLVQAGGSLSISCAASGSTFGYYPMGWYRQAPGKEREFVAAISSRDGSTFYADSVQGRFTISRDNAKNTVYLQMNSLKPEDTAVYYCAKVFFHTPIVPEYDYWGQGTQVTVSS,low polyreactivity
3,QVLLVESGRVLVQAGGSLRLSCAASVSIFANYAMARYIQAPGKERELVASITSSARRTFYADSVKGRFTISRDNAKNTVYLQMNSLKPEVTAVYYCAAKHRRRTVSTRYDDWGQGTQGTVSS,high polyreactivity
4,QVLRVDSGGGLVQAGGSLRLSCAASGSIFGFYARGWDRQAPGTERELVAAITFSGGSTDYTDSVKGRFTISSDNAKNTVYLQMNSLKTEDTSVYYCADRGYAIYSYWYYEPYDYWGQGTQVTVSS,high polyreactivity
5,QVNLVESGGGLVQAGGSLRLSCAASGLTFARNAMGWYSQAPGKERELVASITSVGRTNYADSVKGRFTISRDNAKNTVYLEMNSLKPEDTAVYFCGAKPSWHGVYYWGQGTQVTVSS,low polyreactivity
6,QVNLVESGGVSVQAGGSLRLSCAASGLIFDKYAMGWYRQAPGKERELVAAITRSSGTTYYADSVKGRFTISRDNAKNTVYLLLISVTPEDTAVYYCPAPFIWGYWGVGYYYWGQGTHVTVSS,low polyreactivity
7,QVNLVETGGGLVQAVCSLRLSCAASGSIFGIYTMGWYRQAPGKERELVAAINSGGSTIYADSVKGRFTISRDNAKNTVYLQMNSLKPEDSAVYYWIAYIHPPGPRVYSREYDYWGQGTQLTVSS,low polyreactivity
8,QVNLVYSAGGLVQAGGILRLSCTASGCTFYYNAMGWYRQEPGKVREVVARISRSGGSTYEDSVKGRFTISRDNAKNTVYLPMNSLKPEDTAVYYCNADAYGTPEFTSYAVSYDLWGQGTQVTVSS,low polyreactivity
9,QVPLVESGGGLVQAGGILRLSCAASGRTFRYNVMGCYRQAPGKERELVASISRISGSTYYADSVKGRFTISRDNAKNTVYLQMNSLKPEDTAVYYCAATVKLKHYPYVGFGYWGQGTQVTVSS,high polyreactivity
10,QVPLVESGGGLVQAGGRLRLRCAASAFTFDSYAMGWNRQAPGKERELVAAITWSGGSTYSADSVKGRFTISRDNAKNTVYLQMNSLQPEDTAVYYCNVYRYDGDYWGQGTQVPVSS,high polyreactivity
11,QVPLVESGGGLVQAGGSLRLSCAASGGIFYSYAMGWYRQAPGKERELVPAIRTNGGTTYYADSVKGRFTISRDNAKNTVYLQLNSLKQEDTAVYYCDALPGSYYDRGEYDYWGQGTQVTVSS,low polyreactivity
12,QVPLVESGGGLVQAGGSLRLSCAASGLIFTGYAMGWYRQAPGKEREVVAAITSAGSTNYADSVKGRFTISRDNAKNTVYLQMNSLKPEDTAVYYCGASRTTTFSWYYLYYLVSKYYYWGQGTQVTVSS,low polyreactivity
13,QVPLVESGGGLVQAGGSLRLSCAASGLTVSSYAMGWYRQAPGKERELVAVFSRTGGSTYYADSVKGRFTISRDNAKNTVYLQMNSLKPEDTAVYYCAARSYNGWRYDSWGQGTQVTVSS,high polyreactivity
14,QVPLVESGGGLVQAGGSLRLSCAASGSICWSYAMGWYRQAPGTERELVASITRSGGSTYYADSVKGRFTISRDYAKNSLYLQLNSLKPEETAVYYCNARRTTRWGSSKYEYDYWGQATQVTVSS,high polyreactivity
15,QVPLVESGGGLVQAGGSLRLSCAASGSIFRNYALGWYRQAPGKERELVAGITQRGGRTYYADSVKGRFTSSRDNAKNTVYLQLNSLKPEDTAVYYCAASYRGVPEYDSWGQGTQVTVSS,high polyreactivity
16,QVPLVESGGGLVQSGGSLRISCAASGSIFAPNAMGWYRQAPGKERELVAAITSGGSTDYADYVKGRFTISRDNAKNTVYLQMNRLKPEDTAVYFCAKGYVPYAIFDYWGQATQVTVSS,low polyreactivity
17,QVQDVESGGGLVQAGGSLRLSCAASGRTIDPNAMGWYRQAPGKERELVAAITRTGVRTYYADSVKGRFTISRDNAKNTVYLQMNSLKPEDTAVYYCNRYGARSNDYWGQATQVTVSS,low polyreactivity
18,QVQFVESGGGLVKAGGSLRLSCAASGYTFGRYAMGWYRQAPGKERELVAAITKSGGPTSYADSVKGRFTISRDNAKNTVYLQMNSLKPEDTAVYYCNKVLFQPYWVVYATGDYWGQGTQVTVSS,high polyreactivity
19,QVQGVESGGGLVQAGGSLRLSCAAAGFTFGYYAMGWYRQAPGTERELVAGISWGGTRTYYADSVKGRFTISRDNAKNTVYLQLNSLKPEDTAVYYCAAESILGYDYWGQGTQVTVSS,high polyreactivity
20,QVQHDESGGCLVQAGGSLRLSCAASGITFILYDMGWYREAPGKVRELVASITSGGSTDYADSVKGRFTISRDNAKNTVYLQMNSLKPEDTAVYYCAARYVYPYWYGDYYWGQGTQVTVSS,low polyreactivity
21,QVQHEESAGGLVQAGGSLRLSCAASGSTIHPYSMGWSRQAPGKERELVAAITWGGGSTYYADSVKGRFTISRDNAKNTVYLQMNSLKPEDTAVYYCNSYTLYWPDYDYWGQGTQVTVSS,low polyreactivity

row,Sequence,polyreactivity (PSR sort gate)
1,QVQHEESAGGLVQAGGSLRVSCAASGIIFYDYAMGWYRQAAGKERELVAAITSVGSTNYADSVKGRFTISRDYAKNTVYLQMISLKPDDTAVYYCDAEVYVPDYFQHIFDVEYEYWGQGTQVTVSS,low polyreactivity
2,QVQHEESGGGLVQAGGRLRLSCAASGRTFFSNAMGWYRQAPGKERELVAAISNGDNTYYADSVKGRFTISRDNAKNTVYLQMNSLKPEDTAVYYCATAYPEWAVWGYDYWGQGTQVTVSS,low polyreactivity
3,QVQHEESGGGLVQAGGSLRLSCAASGITINFYDMGRYRQARGKERELGAAITASGGGSTYYADSVKGRFTISRDNAKNTVYLQMNSLKPEYTAVYYCNADSTGSFYTFDYWGQGTQVTVSS,low polyreactivity
4,QVQHVASGGGLVQAGGSLRLSCAASGNIFRYYTMGWYRQAPGKERELVATISYADSVKGRFTISRDNAKNTVYLQMNSLKPEDTAVYYWNAVFAPWDKQDYPYDYDYWGQGTQVTVSS,low polyreactivity
5,QVQHVDSAGGLVQAGGSLRLSCAASGSTFAPNAMGWYRQAPGKERELVAAISFRGVRTYYADSVKGRFTISRDNAKNTVYLQMNCLKPEDTAVYYCNKRVQRRNKPGAYNYEYWGQGTQVTVSS,high polyreactivity
6,QVQHVDSGGGLVQAAGSLRLSCAASGRTFGVYAMGWYRQAPGKERELVATITSVDRTNYADSVKGRFTISRENAKNTVYLLMNSLKPDDTAVYYCADVGRGPRYFYWGQGTQVTVSS,high polyreactivity
7,QVQHVDSGGGLVQTGGSLLLSCAAYGRTFCVNDMGWYRQAAGKEREFVAAITWRGDSTYYADSVKGRFTISRDNAKNTVYLQMNSLKPEDSAVYYCNADVISLYDHPDYLYLFDYWGQGTQVTVSS,low polyreactivity
8,QVQHVDSVGGLVQAGRSLRLICAASGSTFTSYTKGWYRQAPLKERELVDRITRGGGSTYYADSVKGRFTISRDNAKNTVYLQMNSLKQEDTAVYYCAKHVVGSAYYSWGQGTQVTVSS,low polyreactivity
9,QVQHVESAAGLVQAGGSLRLSCDPSGIIFGRYAMGLYRHAPGKEREFVAAITWSGGSTYYADSVKGRFTISRDNAKNTVYLQMNSLKPEDTAVYYCAADTWYRYDYWGQGTQVTVSS,low polyreactivity
10,QVQHVESGAGLVQAGGSLRLSCAASGIILLENAIGCYRQQPGKERELVSGISSGGNTNYADSVKGRFTISRDNAKNTVYLQINSLKPEDTAVYYCNTDWYLPRYVLPGYFSGTEDYWGKGTQVTVSS,low polyreactivity
11,QVQHVESGGALVQAGGSLRLSCAASGITFDYYVMGWYRTAPGKERELVAGISSGGSTYYADSVKGRFTISRDNAKNTVYLQMNSLKPEDTAVYYCNARRRRLVSVGYYYNYDYWGQGTQVTVSS,high polyreactivity
12,QVQHVESGGCLVQAGASLRLSCDASGSIFRRNAMGWYRQAPGKERQLVDAITSYGGRTYYADSVKGRFTISRDNAKNTVYFQMNSLKPVDTAVYYCASRYPWGWAMNYWGQGTQVTVSS,high polyreactivity
13,QVQHVESGGGIVQAGGSLRLICAASGFPYARYAMGWNRQAPGNERELVAAITSAGSTSYADSVKGRFTISRYNAKNTDYFHMNSLKPEDTAVYYCAAVQYNQAYHYWGQGTQVTVSS,high polyreactivity
14,QVQHVESGGGIVQAGGSLRLSCAASGITFDEYAMGWYRQAPGKEWELVATITWSGGSTYYADSVKGRFTISRVNAKNTVDLKMNSLKPEDSAVYYCAARDSGRYDDFGYWGQGTQVTVSS,low polyreactivity
15,QVQHVESGGGIVQAGGSLRLSCAASGSIFRNNTMGWYRQAPGKERELVAAISGRGTRTSYADSVKGRFTISRDNAKNTVYLQMNSLKPEDTAVYYCAARSWYLYYWGQGTQVTVSS,low polyreactivity
16,QVQHVESGGGIVQAGGSLRLSCAASGSTIVDNYMGWYRQAPGKERELVAVINSGGSTYYADSVKGRFTISRDNAKNTGYLQMNSLKPEDTAVYYCAADDIPYGSVYTSIGLDYWGQGTQVTVSS,low polyreactivity
17,QVQHVESGGGIVQAGGSLRLSCSASGSTFFYNTMGWYRHAPGKERELVAAISYRTGSTYYADSVKGRFTISRDNAKNSVYLQMNSLKTEDTAVYYCNARYPYRYGYWGQGTQVTVSS,high polyreactivity
18,QVQHVESGGGLFQAGGSHRLSCAASGRTFSKNAMGWYRQAPGKERELVAAINRGGTTKYADSVKGRFTISRDNAKNTVYLQMNSQKPEDTTVYYCAVDRQRAGYPKQYDSWGQGTQVTVSS,low polyreactivity
19,QVQHVESGGGLGQAGGILRLSCAGCGRTFVRYAMGWYRQAPGNERELVAAITRSASTYYADSVKGRFTISRDNAKKTVDLQMTSLKPEDTSVYYCNAVWSRYRDLDFWGQGTQVTVSS,high polyreactivity
20,QVQHVESGGGLVQAGASLRLSCAASGFTIRSYVRGWYRQAPGKEREIVAAISYRGGGTNYADSVKGRFTISRDNAKNTVYLHMNSLKPEDTAVYYCNARSGSSKSGYYYWGQGTQVTVSS,high polyreactivity
